# Data as given in the RNAGym collection of RNA variant scans (doi:10.7554/elife.80360).
# B1: HDV Ribozyme (parent)
# chain: GGCCGGCAUGGUCCCAGCCUCCUCGCUGGCGCCGGCUGGGCAACAUUCCGAGGGGACCGUCCCCUCGGUAAUGGCGAAUGGGACCCA
# Variants of: B1
# Assay: self-cleavage, relative activity (ratio to wild type); higher = more cleavage; co-transcriptional
row,Variant,self-cleavage
1,G2U G67C,0.0678
2,G2U G67U,0.0563
3,G2U G67A,0.0602
4,C3G U79G,0.262
5,C3G U79C,0.182
6,C3G C4G,1
7,C3G C4A,0.0767
8,C3G C75G,0.0496
9,C3U C26G,0.989
10,G2U G54A,0.0279
11,G2U G54C,0.0157
12,C3A G11A,0.236
13,C3A G11C,0.0963
14,C3G U65A,0.648
15,C3G U65G,0.751
16,C3G C85U,0.751
17,C3G C85A,0.858
18,C3G G82C,0.0923
19,C3A U23C,0.46
20,C3A C62U,0.57
21,C3A C62G,0.0773
22,C3A G54A,0.369
23,C3G C21A,0
24,C3G C21G,0

row,Variant,self-cleavage
1,C3A U27C,0.217
2,C3U C19U,0.126
3,C3U C19G,0.0171
4,C3A G67U,0.71
5,C3A G67C,0.61
6,C3A A8G,0.578
7,C3A A8U,0.269
8,C3A A56G,0.632
9,C3G C32G,0.0282
10,C3G C32A,0
11,C3G C32U,0.198
12,C3U C48G,0.641
13,C3U C48A,0.675
14,C3U C7G,0
15,C3U C7A,0.205
16,C3A A43C,0.0504
17,C3A A43G,0.0821
18,C3A A43U,0.191
19,G2U U27A,0.0767
20,G2U U27C,0.0198
21,C3A U46G,0.026
22,C3G C19G,0.0326
23,C3G C19U,0.158
24,C3G C86G,1.14

row,Variant,self-cleavage
1,C3G C86A,0.876
2,G2U G73C,0
3,C3G C63A,0.575
4,C3G C63U,0.589
5,C3G C63G,0.307
6,C3A A42G,0.0615
7,C3A C49G,0.51
8,C3A C49A,0.554
9,C3A C49U,0.777
10,C3G G28A,0.0326
11,C3G G28U,0.0357
12,C3A U47G,0.237
13,C3A U47A,0.429
14,C3U C15U,0.562
15,C3G G68A,0.51
16,C3U A77C,0.0639
17,C3A G6U,0.0492
18,C3A C7U,0.188
19,C3G C84G,0.41
20,C3G C84U,0.736
21,C3A C48A,0.839
22,C3A C48U,0.635
23,C3G G73A,0.211
24,C3G G73U,0.0583

row,Variant,self-cleavage
1,C3A C85G,0.623
2,C3A G38C,0
3,C3A U37G,0.0685
4,C3A U37C,0.661
5,C3G A83C,0.191
6,C3A U12C,0.0615
7,C3G G38U,0.166
8,C3A C41G,0.0761
9,C3A G81A,0.054
10,C3A G81C,0.0158
11,C3U A16C,0.437
12,G2U G55C,0.116
13,G2U G55A,0.0732
14,C3G C30U,0.156
15,C3A C4G,0.0225
16,C3G G59U,0.899
17,C3G G59A,0.831
18,C3A C36U,0.0915
19,G2U U20G,0.0256
20,C3G C64A,0.528
21,C3G C64G,0.546
22,C3G C64U,0.726
23,C3U C36U,0.356
24,C3U C36G,0.0519

row,Variant,self-cleavage
1,C3G U23A,0.929
2,C3G U23G,0.0791
3,C3G A87C,0.861
4,C3G U46A,0.253
5,C3G U46C,0.373
6,C3G G80U,0.0801
7,C3G G25C,0.0292
8,C3G G25A,0.0511
9,C3G G39A,0.0594
10,C3G G39C,0.157
11,C3A C58G,0.606
12,C3A A51G,0.444
13,C3A C32U,0.119
14,C3A G35A,0.859
15,C3A G35U,1.14
16,C3U C62A,0.973
17,C3U C62U,0.762
18,G2U G74C,0
19,G2U U46C,0.0213
20,C3A U60C,0.499
21,C3A G5U,0.00831
22,G2U G53C,0.0647
23,G2U G53A,0.0412
24,C3A G76U,0.773

row,Variant,self-cleavage
1,C3A G76C,0.604
2,C3G G40A,0.575
3,C3G G40C,0.339
4,C3U C57G,0.803
5,G2U G80A,0.0496
6,G2U G80U,0.0208
7,G2U G80C,0.0455
8,C3A G73U,0.111
9,C3G C7A,0.0213
10,C3A,0.641
11,C3U,0.802
12,C3G,0.753
13,C3G A77G,0.237
14,C3G A77U,0.0297
15,C3G A78U,0.125
16,C3A G39A,0.067
17,C3A G80U,0.0893
18,C3A G40A,0.412
19,G2U U69C,0
20,C3A G17A,0.104
21,C3A G17U,0.0665
22,G2U U65A,0.02
23,G2U U23C,0.112
24,C3A C84A,0.391

row,Variant,self-cleavage
1,C3A C84G,0.158
2,C3A G50C,0.572
3,C3A G25C,0.0198
4,C3G C36A,0.0288
5,C3G C36U,0.155
6,C3A U69A,0.406
7,C3A U69G,0.567
8,C3G A42U,0.116
9,C3G A42G,0.138
10,C3A G10A,0.335
11,C3A G10C,0.504
12,C3A G10U,0.23
13,C3G C44G,0.0707
14,C3G U12A,0.0462
15,C3G U12G,0.32
16,C3G G5C,1.5
17,C3G G5A,0.18
18,C3U A51G,0.577
19,C3G C13G,0.0504
20,C3G C13A,0.0545
21,C3G C33A,0.0817
22,C3G C33G,0.128
23,C3G C33U,0.194
